Assay results published in the supplement of paper PMC10567573.

B1: PTPN9 (parent)
chain: IDFLRVVRNQQSLAVSNMGARSKG
B2: CAMK2D (parent)
chain: IVRLHDSISEEGFHYLVFDLVTGG

Variants of: B1
Experiment: protein stability index of a GFP-peptide fusion (GPS, HEK-293T) (PSI 1-6); higher = more stable
Conditions: c terminus: a fixed tail appended
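Note: lentivirally expressed fusions sorted by FACS into six bins by GFP to DsRed ratio, PSI derived from sequencing read proportions per bin multiplied by bin number.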

Variant | protein stability index
S22E | 3.13
S22K | 2.46
S22L | 2.07
S22P | 2.4
S22V | 2.03
S22F | 2.24
S22M | 1.81
S22C | 2.51
S22A | 2.2
S22T | 2.23
S22I | 2.05
S22Q | 2.86
S22W | 2.4
S22Y | 2.16
S22R | 2.64
S22G | 2.27
S22H | 2.55
S22N | 2.57
S22D | 2.69
R21Q | 2.18
R21M | 1.77
R21P | 2.15

Variant | protein stability index
R21V | 2
R21T | 1.66
R21W | 2.18
R21S | 2.37
R21Y | 2.08
R21N | 2.65
G24K | 3.05
G24S | 2.28
G24F | 1.84
G24N | 2.46
G24E | 2.95
G24Q | 2.72
G24L | 2.18
G24M | 2.18
G24W | 1.76
G24D | 2.75
G24Y | 3.1
G24T | 2.63
G24V | 2.45
G24C | 1.84
G24R | 2.48
G24H | 2.27

Variant | protein stability index
G24I | 2.3
G24A | 2.55
G24P | 2.2
K23M | 1.91
K23P | 2.09
K23Y | 1.92
K23F | 1.51
K23A | 2.01
K23L | 1.72
K23E | 2.32
K23S | 1.68
K23H | 1.75
K23R | 2.4
K23Q | 3.29
K23N | 2.02
K23W | 1.59
K23V | 1.72
K23D | 2.36
K23I | 1.72
K23C | 1.88
K23G | 1.96
K23T | 1.32

Variants of: B2
Experiment: as above
Conditions: c terminus: a fixed tail appended

Variant | protein stability index
G23K | 2.19
G23C | 4.08
G23H | 2.88
G23A | 3.32
G23I | 2.57
G23E | 3.03
G23L | 2.92
F18H | 1.63
F18P | 2.13
F18S | 2
F18Y | 1.43
F18A | 2.33
F18V | 4.52
F18Q | 1.33
F18T | 2.1
F18E | 2.33
F18R | 1.79
F18N | 2.84
F18G | 2
F18D | 2.67
F18K | 2.17
F18L | 2.51
F18C | 1.32
F13Q | 1.37
F13K | 1.43

Variant | protein stability index
F13A | 1.76
F13T | 3.34
F13P | 1.08
F13Y | 3.07
F13H | 1.62
F13M | 2.71
F13D | 1.91
F13L | 2.02
F13N | 2.2
F13S | 3.27
F13W | 2.18
F13E | 2.6
D19P | 3.21
D19A | 1.87
D19W | 1.91
D19G | 2.15
D19M | 3.68
D19S | 4.24
D19I | 2.4
D19Y | 3.34
D19T | 1.62
D19L | 2.47
D19V | 2.75
D19K | 2.88
D19Q | 2.4

Variant | protein stability index
I1P | 1.25
I1N | 1.75
I1K | 2.05
I1T | 2.07
I1M | 3.44
I1H | 3.43
I1S | 3.07
I1F | 1.06
I1E | 2.24
I1V | 2.13
I1G | 1.94
E11A | 2.79
E11F | 3.42
E11Q | 2.06
E11L | 3.7
E11I | 1.56
E11Y | 3.26
E11T | 2.08
E11N | 3.39
E11R | 3.9
E11P | 2.13
E11D | 3.32
L20N | 2.25
L20K | 2.41
L20E | 2.05

Variant | protein stability index
L20M | 3.24
L20T | 2.27
L20S | 1.45
L20P | 1.86
L20V | 3.87
L20R | 2.04
L20Y | 2.67
L20Q | 2.52
L20D | 1.67
L20H | 1.35
L20A | 2.13
L20C | 3.9
L20G | 1.93
L20I | 3.09
V17H | 2.93
V17P | 2.04
V17W | 2.39
V17G | 3.58
V17K | 2.56
V17F | 2.39
V17R | 2.13
V17T | 1.75
V17N | 1.85
V17I | 2.58
V17S | 3.19

Variant | protein stability index
V17D | 1.46
V17A | 2.78
V17Y | 3.27
V17L | 1
V17E | 1.69
D6N | 1.95
D6A | 3.03
D6P | 4.25
D6T | 4.86
D6M | 2.4
D6C | 2.66
H14D | 1.85
H14A | 2.32
H14C | 2.29
H14K | 2.2
H14M | 2.25
H14P | 2.79
H14E | 1.83
H14Y | 2.71
L4H | 2.53
L4R | 1.62
L4K | 3.71
L4W | 1.57
L4F | 2.4
L4E | 1.69

Variant | protein stability index
L4A | 2.4
L4S | 1.9
L4T | 1.29
L4D | 1.8
L4N | 1.87
L4P | 2.39
L4Q | 1.69
L16R | 2.51
L16I | 2.66
L16T | 1.21
L16A | 3.09
L16E | 1.57
L16P | 1.74
L16Y | 2.98
L16S | 1.55
L16G | 2.17
L16Q | 2.04
L16N | 1.5
L16C | 2.49
L16H | 1.39
L16F | 2.76
L16D | 1.63
V21H | 2
V21F | 3.33
V21M | 1.93

Variant | protein stability index
V21P | 2.41
V21D | 3.2
V21G | 3.19
V21A | 1.11
V21K | 1.57
V21N | 4.11
V21Q | 2.38
V21W | 4.26
V21Y | 3.1
V21L | 2.71
V21T | 2.88
T22I | 2.22
T22C | 3.58
T22S | 2.67
T22N | 4.16
T22H | 2.24
T22E | 2.96
T22K | 3.31
T22Y | 3.62
T22M | 2.02
S9N | 2.94
S9F | 1.94
S9Q | 4.38
S9L | 4.27
S9K | 2.84

Variant | protein stability index
S9P | 5.65
S9D | 2.36
S9G | 1.99
S9E | 3.35
S9Y | 3.58
S9M | 3.39
V2T | 2.52
V2M | 1.93
V2P | 1.46
V2Y | 3.12
V2E | 2.3
V2K | 1.51
V2L | 2.69
V2I | 3.28
V2D | 1.79
V2A | 2.29
R3C | 2.03
R3P | 2.28
R3Q | 2
R3E | 2.25
R3G | 2.41
R3Y | 2.58
R3H | 3.12
R3V | 2.23
R3S | 1.57

Variant | protein stability index
Y15A | 2.98
Y15N | 2.46
Y15H | 1.2
Y15D | 1.89
Y15S | 1.06
Y15E | 1.7
Y15P | 1.75
Y15K | 2.76
Y15I | 2.54
Y15R | 1.21
Y15F | 2.63
Y15Q | 1.58
Y15W | 2.7
S7W | 2.25
S7E | 2.24
S7A | 3.35
S7Q | 2.4
S7M | 3.09
S7H | 3.68
S7L | 2.56
S7T | 3.19
S7N | 3.29
S7G | 1.96
S7Y | 3.15
G12A | 2.25

Variant | protein stability index
G12S | 3.25
G12N | 2.04
G12Y | 3.96
G12E | 2.48
G12V | 3.05
G12I | 2.16
G12P | 2.31
G12W | 3.89
G12T | 3.32
I8C | 2.85
I8T | 2.61
I8Y | 3.84
I8E | 1.44
I8H | 3.29
I8R | 1.65
I8Q | 1.69
I8K | 2.4
I8N | 3.02
I8S | 3.33
I8A | 2.21
I8P | 3.04
I8G | 1.64
E10Y | 2.83
E10T | 3.29
E10S | 2.15

Variant | protein stability index
E10I | 3.06
E10K | 2.7
E10M | 2.53
E10R | 2.65
E10N | 4.11
E10F | 2.4
E10A | 3.84
E10H | 3.04
H5I | 3.99
H5F | 3.15
H5N | 2.33
H5Y | 3.23
H5K | 4.72
H5C | 3.23
H5D | 2.94
H5R | 2.39
H5S | 3.02
H5P | 3.91
